Like-named read-outs stand apart in the source and are kept apart here. Each block holds one molecule with its values, some of them ahead of it. Where a SMILES comes first, the peptide text is derived from it. [ ]: non-standard residue; d: D form. The star is where a group is joined. 5FAM = O=C1OC2(c3ccc(O)cc3Oc3cc(O)ccc32)c2ccc(C(=O)*)cc21; hSer = N[C@@H](CCO)C(=O)O; Nva = CCC[C@H](N)C(=O)O; Abu = CC[C@H](N)C(=O)O; βAla = NCCC(=O)O
How the values were obtained:
porcine calpain-1 = molecular target: T1, porcine calpain-1 (Sus scrofa, UniProt P04574); test: Fluorescence polarization binding assay of labelled calpastatin peptides with purified calpain; settings: calpain titrated into 500 nM labelled peptide; 50 mM NaP, 50 mM NaCl, 5 mM BME, 1 mM CaCl2, 1 mM EDTA, pH 8.0; room temperature; 3 polarization readings averaged per concentration; single state binding model; read-out: Experimental KD
T1 construct: GST (N, cleaved yes); made in house; host or cells: E. coli (pET41b vector)
T1 sequence (P04574 94-266 limits assumed): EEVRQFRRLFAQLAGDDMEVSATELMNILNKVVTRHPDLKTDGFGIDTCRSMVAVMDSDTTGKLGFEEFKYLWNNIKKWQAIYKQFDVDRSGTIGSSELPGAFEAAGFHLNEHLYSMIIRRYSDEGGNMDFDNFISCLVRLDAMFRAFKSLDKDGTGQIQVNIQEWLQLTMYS
Protocol: Calpain was expressed as a GST-fusion protein in E. coli that had been transfected with a pet41b vector that contained the gene encoding porcine calpain-1. The cells were grown in Luria-Bertani broth with 50 ug/ml kanamycin at 37 degrees Celsius to an OD600 of 0.6 at which point 1 mM isopropyl β-D-1-thiogalactopyranoside (IPTG) was added to induce expression. Cells were grown for an additional 4 hours and harvested by centrifugation. Cells were resuspended in a buffer containing 50 mM NaPO4, 150 mM NaCl, 5 mM BME at pH 8.0 and lysed by sonication. Lysate was centrifuged at 12500 g for 30 minutes and the supernatant was run over a GSTrap-FF column that had been equilibrated with the lysis buffer. After loading, the column was washed with 10 column volumes of the lysis buffer before the GST-calpain was eluted with 50 mM Tris and 10 mM reduced glutithione, pH 8.0. The eluent was monitored by absorbance at 280 nm.5 mL fractions were collected. Those fractions which absorbed at 280 nm were pooled. Thrombin was added to separate the calpain from the GST and the cleavage reaction was allowed to cleave overnight at 4 Celsius. To remove the GST the protein was further purified with a Sephacryl S-200 gel filtration column using a buffer containing 50 mM NaPO4, 50 mM NaCl, 5 mM BME, 1 mM CaCl2, 1 mM EDTA at pH 8.0. The protein was concentrated through centrifugation via a spin column with a 15 K molecular weight cutoff and found to be pure and ran true to predicted size on SDS-PAGE gels.
Purified calpain was manually titrated in to a solution containing 500 nM calpastatin with 50 mM NaP, 50 mM NaCl, 5 mM BME, 1 mM CaCl2, 1 mM EDTA at pH 8.0, till the change in fluorescence polarization reached a plateau. Binding assays were performed at room temperature, 3 polarization readings were averaged for each concentration. Disassociation constants were calculated by fitting the data to a single state binding model using Sigma plot software.

[1] = molecular target: T2, wild type calpastatin subdomain C peptide, FITC-labelled (FITC–βALA–…-amide); test: fluorescence polarisation; purified calpain manually titrated into 500 nM labelled calpastatin peptide; 50 mM NaP, 50 mM NaCl, 5 mM BME, 1 mM CaCl2, 1 mM EDTA, pH 8.0; room temperature; single state binding model
T2 chain: PDDAIDALSDDFTS

[2] = molecular target: T3, wild type calpastatin subdomain C peptide, 5FAM-labelled (5FAM–βALA–…-amide); test: as above
T3 chain: PDDAIDALSDDFTS

[3] = molecular target: T4, calpastatin peptide Phe610 to 4-methyl-phenylalanine (FITC–βALA–…(4MF)TS-amide); test: as above
T4 chain: PDDAIDALSDDFTS

[4] = molecular target: T5, calpastatin peptide Ser607 to amino butyric acid (5FAM–βALA–PDDAIDAL(ABU)DDFTS-amide); test: as above
T5 chain: PDDAIDALXDDFTS

[5] = molecular target: T6, calpastatin peptide Asp609 to 1-methyl-histidine (5FAM–βALA–…(1MH)FTS-amide); test: as above
T6 chain: PDDAIDALSDHFTS

[6] = molecular target: T7, calpastatin peptide Ser607 to norvaline (5FAM–βALA–PDDAIDAL(NVL)DDFTS-amide); test: as above
T7 chain: PDDAIDALXDDFTS

[7] = molecular target: T8, calpastatin peptide Asp609 to homoserine (5FAM–βALA–…(HSE)–FTS-amide); test: as above
T8 chain: PDDAIDALSDXFTS

[8] = molecular target: T2, wild type calpastatin subdomain C …; test: as above

Molecule: CC[C@H](NC(=O)[C@H](CC(C)C)NC(=O)[C@H](C)NC(=O)[C@H](CC(=O)O)NC(=O)[C@@H](NC(=O)[C@H](C)NC(=O)[C@H](CC(=O)O)NC(=O)[C@H](CC(=O)O)NC(=O)[C@@H]1CCCN1C(=O)CCNC(=O)c1ccc2c(c1)C(=O)OC21c2ccc(O)cc2Oc2cc(O)ccc21)[C@@H](C)CC)C(=O)N[C@@H](CC(=O)O)C(=O)N[C@@H](CC(=O)O)C(=O)N[C@@H](Cc1ccccc1)C(=O)N[C@H](C(=O)N[C@@H](CO)C(N)=O)[C@@H](C)O [ABU (5FAM)] ({5FAM-βAla}-PDDAIDAL[Abu]DDFTS-NH2)
Kd (porcine calpain-1): 5.8 ± 1.2 µM

B1: porcine calpain-1 (enzyme)
chain: EEVRQFRRLFAQLAGDDMEVSATELMNILNKVVTRHPDLKTDGFGIDTCRSMVAVMDSDTTGKLGFEEFKYLWNNIKKWQAIYKQFDVDRSGTIGSSELPGAFEAAGFHLNEHLYSMIIRRYSDEGGNMDFDNFISCLVRLDAMFRAFKSLDKDGTGQIQVNIQEWLQLTMYS
modifications: not checked
Kd [1]: 5800 µM
Kd [2]: 6.6 µM
Kd [3]: 2.6 µM
Kd [4]: 5.8 µM
Kd [5]: 5.81 µM
Kd [6]: 8.56 µM
Kd [7]: 7.48 µM
Kd [8]: 5.77 µM

The remaining molecules from weak to strong by Kd (porcine calpain-1), led by results:

Kd (porcine calpain-1): 8.56 ± 0.95 µM
Molecule: CCC[C@H](NC(=O)[C@H](CC(C)C)NC(=O)[C@H](C)NC(=O)[C@H](CC(=O)O)NC(=O)[C@@H](NC(=O)[C@H](C)NC(=O)[C@H](CC(=O)O)NC(=O)[C@H](CC(=O)O)NC(=O)[C@@H]1CCCN1C(=O)CCNC(=O)c1ccc2c(c1)C(=O)OC21c2ccc(O)cc2Oc2cc(O)ccc21)[C@@H](C)CC)C(=O)N[C@@H](CC(=O)O)C(=O)N[C@@H](CC(=O)O)C(=O)N[C@@H](Cc1ccccc1)C(=O)N[C@H](C(=O)N[C@@H](CO)C(N)=O)[C@@H](C)O [NVL (5FAM)] ({5FAM-βAla}-PDDAIDAL[Nva]DDFTS-NH2)

Kd (porcine calpain-1): 7.48 ± 0.68 µM
Molecule: CC[C@H](C)[C@H](NC(=O)[C@H](C)NC(=O)[C@H](CC(=O)O)NC(=O)[C@H](CC(=O)O)NC(=O)[C@@H]1CCCN1C(=O)CCNC(=O)c1ccc2c(c1)C(=O)OC21c2ccc(O)cc2Oc2cc(O)ccc21)C(=O)N[C@@H](CC(=O)O)C(=O)N[C@@H](C)C(=O)N[C@@H](CC(C)C)C(=O)N[C@@H](CO)C(=O)N[C@@H](CC(=O)O)C(=O)N[C@@H](CCO)C(=O)N[C@@H](Cc1ccccc1)C(=O)N[C@H](C(=O)N[C@@H](CO)C(N)=O)[C@@H](C)O [HSE (5FAM)] ({5FAM-βAla}-PDDAIDALSD[hSer]FTS-NH2)

Kd (porcine calpain-1): 6.6 ± 0.65 µM
Molecule: CC[C@H](C)[C@H](NC(=O)[C@H](C)NC(=O)[C@H](CC(=O)O)NC(=O)[C@H](CC(=O)O)NC(=O)[C@@H]1CCCN1C(=O)CCNC(=O)c1ccc2c(c1)C(=O)OC21c2ccc(O)cc2Oc2cc(O)ccc21)C(=O)N[C@@H](CC(=O)O)C(=O)N[C@@H](C)C(=O)N[C@@H](CC(C)C)C(=O)N[C@@H](CO)C(=O)N[C@@H](CC(=O)O)C(=O)N[C@@H](CC(=O)O)C(=O)N[C@@H](Cc1ccccc1)C(=O)N[C@H](C(=O)N[C@@H](CO)C(N)=O)[C@@H](C)O [WT (5FAM), reference compound] ({5FAM-βAla}-PDDAIDALSDDFTS-NH2)

Reference: paper PMC3303795, “Incorporation of Noncanonical Amino Acids into Rosetta and Use in Computational Protein-Peptide Interface Design” (PLoS ONE, 2012)
